{"source": "patent US20070203061", "about": "“Adiponectin expression-inducing agents and uses thereof” (TOUDAI TLO, LTD, published 2007)", "molecular_target": "FLAG-KLF9 (UniProt O35739 SEQ:1-244)", "sequence (O35739 other isoform, or with tags, fused parts or gaps)": "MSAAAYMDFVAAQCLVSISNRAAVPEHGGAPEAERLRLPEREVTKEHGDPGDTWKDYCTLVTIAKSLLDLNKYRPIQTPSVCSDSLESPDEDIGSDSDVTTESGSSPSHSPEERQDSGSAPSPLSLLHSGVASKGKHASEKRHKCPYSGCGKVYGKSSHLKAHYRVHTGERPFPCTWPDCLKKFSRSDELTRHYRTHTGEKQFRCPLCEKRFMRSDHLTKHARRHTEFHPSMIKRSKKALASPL", "assay": "EMSA; purified FLAG-KLF9 with 32-bp fragment, similar to adipocyte nuclear extract", "settings": "tags: FLAG; label: 32P", "procedure": "[…] were prepared from 293T cells, 3T3L1 adipocytes, or white adipose tissue according to a reported method (Almoguera, C. et al., J. Biol. Chem. 277, 43866-43872 (2002)). Double-stranded oligonucleotides used for the electrophoretic mobility shift assay were prepared by annealing both strands. Labeled probes (3,000 to 10,000 cpm) and the nuclear extracts were mixed in a reaction solution (20 μL: 10 mM Tris-HCl (pH7.6), 50 mM KCl, 0.05 mM EDTA, 2.5 mM MgCl₂, 8.5% glycerol, 1 mM dithiothreitol, 0.5 μg/mL of poly(dI-dC), 0.1% Triton X, and 1 mg/mL of skim milk), and incubated for 30 minutes on ice. The DNA-protein complexes were fractionated on a 4.6% polyacrylamide gel at 140 V for 1 hour at 4° C. The Gel was dried and exposed using a BAS2000 filter with BAStation software (Fuji Photo Film).", "data": [{"binder": "adiponectin promoter -188/-157 32-bp element (dsDNA) DNA 1: GAAGCCCAAGCTGGGTTGTACCAGGTTCCCTA DNA 2: TAGGGAACCTGGTACAACCCAGCTTGGGCTTC", "values": [{"measurement": "binding result", "result": "binds"}]}]}
